Assay [1] concerns the target endogenous calnexin (HEK293T and other human cells) (human) (UniProt P27824). Kind of assay: co-immunoprecipitation from HEK293T cells transfected with HIV-1 molecular clones; IP of endogenous calnexin with anti-CNX antibody, western blot for Nef; reference lane. Background: In western blotting, separated proteins are transferred to a membrane and probed.
Assay [2] shares this target. The assay can be described thus: co-immunoprecipitation with endogenous calnexin, HEK293T cells (FIG. 3A).
Assay [3] has the same target. Kind of assay: co-immunoprecipitation with endogenous calnexin, HEK293T cells transfected with mutant HIV-1 NL4-3 clone, immunoblot for Nef.
The target is the same in assay [4]. The assay can be described thus: co-immunoprecipitation from HEK293T cells transfected with HIV-1 molecular clones; IP of endogenous calnexin with anti-CNX antibody, western blot for Nef; relative to the Nef wt lane; no Nef band is visible in this lane.
The target of assay [5] is T1, myristoylated NefSF2 (HIV-1, UniProt P03407 2-210, myristoylated (site not given)).
T1 construct: Analyte in SPR
Kind of assay: SPR, Biacore T-200, CNX-CT amine-coupled on CM5 chip, Nef as analyte, 25 C. A general note: In SPR one partner is held on a chip, and binding of the other changes the refractive index at the surface.

Assay [6] deals with T2, HA-tagged calnexin with truncation of the C-terminal cytoplasmic domain (CNXΔ504-586) (human, UniProt P27824 21-592).
T2 sequence: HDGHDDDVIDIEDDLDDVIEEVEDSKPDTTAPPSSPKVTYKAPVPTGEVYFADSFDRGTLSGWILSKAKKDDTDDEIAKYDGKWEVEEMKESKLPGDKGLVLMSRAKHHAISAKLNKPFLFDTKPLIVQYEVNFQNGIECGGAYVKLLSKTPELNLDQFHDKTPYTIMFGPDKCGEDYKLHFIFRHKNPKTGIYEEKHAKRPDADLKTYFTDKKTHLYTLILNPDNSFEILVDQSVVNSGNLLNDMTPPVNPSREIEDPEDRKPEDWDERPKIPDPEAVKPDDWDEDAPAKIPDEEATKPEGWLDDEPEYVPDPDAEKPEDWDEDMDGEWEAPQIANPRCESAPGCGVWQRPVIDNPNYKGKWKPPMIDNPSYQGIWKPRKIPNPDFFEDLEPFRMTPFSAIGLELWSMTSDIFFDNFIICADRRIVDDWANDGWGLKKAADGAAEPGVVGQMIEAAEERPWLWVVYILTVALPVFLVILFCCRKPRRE
Kind of assay: co-immunoprecipitation with anti-HA beads from HEK293T lysates, immunoblot for Nef, densitometry.

The target of assay [7] is T3, HA-tagged calnexin with deletion of the lumenal repeat segment (CNXΔ276-409) (human, UniProt P27824 21-592).
T3 construct: Made by restriction digest and re-ligation, so junction residues are not known
T3 sequence: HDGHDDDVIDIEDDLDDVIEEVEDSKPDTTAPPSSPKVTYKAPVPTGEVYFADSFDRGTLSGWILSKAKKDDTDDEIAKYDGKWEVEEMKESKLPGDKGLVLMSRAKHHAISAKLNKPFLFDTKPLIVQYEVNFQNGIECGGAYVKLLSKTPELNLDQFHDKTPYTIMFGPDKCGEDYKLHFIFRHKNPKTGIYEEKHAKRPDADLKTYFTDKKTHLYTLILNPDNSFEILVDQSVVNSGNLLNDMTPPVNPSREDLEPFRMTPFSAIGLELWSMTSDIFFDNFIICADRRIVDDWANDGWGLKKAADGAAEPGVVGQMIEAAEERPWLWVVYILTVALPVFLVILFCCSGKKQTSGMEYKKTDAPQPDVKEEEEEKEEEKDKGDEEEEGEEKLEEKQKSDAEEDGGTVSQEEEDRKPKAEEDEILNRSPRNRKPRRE
Described as above.

Assay [8] addresses T4, endogenous calnexin (HEK293T and other human cells) (human, UniProt P27824 21-592).
T4 construct: Endogenous cellular protein, immunoprecipitated with a monoclonal anti-calnexin antibody or co-precipitated with HA-Nef; also called CNX
T4 sequence: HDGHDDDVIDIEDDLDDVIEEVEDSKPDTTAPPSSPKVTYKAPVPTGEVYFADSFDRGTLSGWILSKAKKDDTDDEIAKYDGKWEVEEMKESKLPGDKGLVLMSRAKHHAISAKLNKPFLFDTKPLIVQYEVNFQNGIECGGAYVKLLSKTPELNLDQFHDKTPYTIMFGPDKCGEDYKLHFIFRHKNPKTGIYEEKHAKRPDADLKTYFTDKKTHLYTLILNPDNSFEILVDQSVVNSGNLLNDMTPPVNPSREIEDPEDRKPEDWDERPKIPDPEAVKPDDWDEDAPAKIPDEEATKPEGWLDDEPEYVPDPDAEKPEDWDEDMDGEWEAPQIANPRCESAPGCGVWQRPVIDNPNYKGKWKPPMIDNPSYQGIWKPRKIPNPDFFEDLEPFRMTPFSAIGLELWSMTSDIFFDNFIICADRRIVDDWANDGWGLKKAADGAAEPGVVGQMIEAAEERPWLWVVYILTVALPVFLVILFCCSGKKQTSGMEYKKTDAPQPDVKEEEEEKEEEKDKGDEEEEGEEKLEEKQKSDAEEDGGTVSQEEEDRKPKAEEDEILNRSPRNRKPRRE
The assay can be described thus: co-immunoprecipitation with endogenous calnexin, HEK293T cells, densitometry.

In assay [9] the target is T4, endogenous calnexin (HEK293T and other …). The assay can be described thus: co-immunoprecipitation from HEK293T cells transfected with pcDNA Nef plasmids; IP of endogenous calnexin with anti-CNX antibody, western blot for Nef; relative to the Nef wt lane.
For assay [10] the target is unchanged. Kind of assay: co-immunoprecipitation with endogenous calnexin (monoclonal anti-calnexin), HEK293T cells, immunoblot for Nef.
The target in assay [11] is T5, ABCA1-FLAG (ATP-binding cassette A1 with FLAG tag) (UniProt O95477 1-2261).
T5 construct: whole, on cells; Immunoprecipitated with anti-FLAG beads from lysates; not shown: FLAG tag
Kind of assay: co-immunoprecipitation with ABCA1-FLAG (anti-FLAG beads), HEK293T cells, densitometry.

This is an account of results in patent publication US10684274 (GEORGE WASHINGTON UNIVERSITY A CONGRESSIONALLY CHARTERED …, dated 2020).

T5 sequence (O95477 whole entry): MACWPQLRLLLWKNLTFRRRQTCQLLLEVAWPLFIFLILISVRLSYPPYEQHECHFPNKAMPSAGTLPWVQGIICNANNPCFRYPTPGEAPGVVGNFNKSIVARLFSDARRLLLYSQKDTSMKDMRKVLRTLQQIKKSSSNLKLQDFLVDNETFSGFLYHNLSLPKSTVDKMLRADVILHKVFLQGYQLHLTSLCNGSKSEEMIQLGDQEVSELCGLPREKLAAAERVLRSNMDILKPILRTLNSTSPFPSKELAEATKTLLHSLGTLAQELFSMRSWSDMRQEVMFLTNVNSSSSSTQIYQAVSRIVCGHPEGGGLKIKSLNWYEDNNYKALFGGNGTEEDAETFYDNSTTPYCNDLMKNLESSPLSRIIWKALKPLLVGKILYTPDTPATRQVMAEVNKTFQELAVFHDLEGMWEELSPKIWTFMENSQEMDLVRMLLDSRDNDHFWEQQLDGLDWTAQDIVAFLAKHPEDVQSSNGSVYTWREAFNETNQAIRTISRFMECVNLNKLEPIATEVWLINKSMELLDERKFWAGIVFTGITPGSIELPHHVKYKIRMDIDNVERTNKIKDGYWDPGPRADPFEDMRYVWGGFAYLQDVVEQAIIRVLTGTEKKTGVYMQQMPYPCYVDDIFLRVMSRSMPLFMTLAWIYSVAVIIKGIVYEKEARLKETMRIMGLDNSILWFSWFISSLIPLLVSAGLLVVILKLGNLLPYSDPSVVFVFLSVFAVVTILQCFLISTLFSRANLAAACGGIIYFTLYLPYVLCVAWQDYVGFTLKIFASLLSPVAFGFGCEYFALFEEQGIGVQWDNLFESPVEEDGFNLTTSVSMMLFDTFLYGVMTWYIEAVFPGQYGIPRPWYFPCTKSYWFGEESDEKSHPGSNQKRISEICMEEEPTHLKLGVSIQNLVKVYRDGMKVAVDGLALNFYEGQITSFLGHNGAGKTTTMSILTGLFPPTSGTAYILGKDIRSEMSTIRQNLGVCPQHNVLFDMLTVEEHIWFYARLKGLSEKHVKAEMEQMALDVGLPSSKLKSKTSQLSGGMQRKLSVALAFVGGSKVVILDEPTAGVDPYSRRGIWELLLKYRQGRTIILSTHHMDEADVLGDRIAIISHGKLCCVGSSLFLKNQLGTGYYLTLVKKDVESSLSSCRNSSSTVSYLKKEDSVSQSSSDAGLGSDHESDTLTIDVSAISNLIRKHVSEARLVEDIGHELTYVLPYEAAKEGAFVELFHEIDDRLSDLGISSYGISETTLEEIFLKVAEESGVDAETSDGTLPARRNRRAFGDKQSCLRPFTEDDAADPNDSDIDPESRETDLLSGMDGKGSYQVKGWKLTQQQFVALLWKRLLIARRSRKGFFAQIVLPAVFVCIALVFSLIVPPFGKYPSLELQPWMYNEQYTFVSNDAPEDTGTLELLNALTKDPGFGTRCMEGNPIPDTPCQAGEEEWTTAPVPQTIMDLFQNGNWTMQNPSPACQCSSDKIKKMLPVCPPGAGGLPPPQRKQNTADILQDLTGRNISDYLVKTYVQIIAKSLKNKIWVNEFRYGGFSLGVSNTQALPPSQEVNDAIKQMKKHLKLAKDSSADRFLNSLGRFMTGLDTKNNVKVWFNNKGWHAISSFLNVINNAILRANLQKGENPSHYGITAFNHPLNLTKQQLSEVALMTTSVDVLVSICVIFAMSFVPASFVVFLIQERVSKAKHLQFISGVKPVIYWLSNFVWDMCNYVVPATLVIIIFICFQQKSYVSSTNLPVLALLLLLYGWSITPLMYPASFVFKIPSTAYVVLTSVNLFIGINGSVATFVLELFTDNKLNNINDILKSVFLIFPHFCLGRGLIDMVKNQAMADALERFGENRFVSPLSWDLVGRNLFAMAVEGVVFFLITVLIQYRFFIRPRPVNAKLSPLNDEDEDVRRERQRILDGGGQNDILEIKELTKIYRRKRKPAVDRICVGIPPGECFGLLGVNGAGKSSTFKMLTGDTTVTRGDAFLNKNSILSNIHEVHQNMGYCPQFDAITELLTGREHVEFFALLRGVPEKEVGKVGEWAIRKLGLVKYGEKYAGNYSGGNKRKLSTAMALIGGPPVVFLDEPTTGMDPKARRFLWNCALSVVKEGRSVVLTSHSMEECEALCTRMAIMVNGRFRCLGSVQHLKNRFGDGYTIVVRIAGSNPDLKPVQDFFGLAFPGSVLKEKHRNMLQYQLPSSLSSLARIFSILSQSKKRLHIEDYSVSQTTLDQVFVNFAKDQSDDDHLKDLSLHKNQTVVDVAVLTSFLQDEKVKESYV

In [1], “HIV-1 NL4-3 Nef, wild type (expressed from HIV-1 NL4-3 molecular clone)” registered a relative amount of co-precipitated Nef (gel densitometry) of 1.
In [2], “HIV-1 NL4-3 Nef K4,7A mutant (expressed from mutant HIV-1 NL4-3 clone)” showed a loss of interaction relative to Nef WT of over 95%. In addition, the reduction of interaction relative to Nef WT in [3] is 95%. In addition, the relative amount of co-precipitated Nef (gel densitometry) in assay [4] amounted to 0.05.

B1: recombinant calnexin cytoplasmic tail (CNX-CT), N-terminal His-tag and SUMO domain, purified from E. coli (other)
chain: HHHHHHHHCSGKKQTSGMEYKKTDAPQPDVKEEEEEKEEEKDKGDEEEEGEEKLEEKQKSDAEEDGGTVSQEEEDRKPKAEEDEILNRSPRNRKPRRE
notes: also called cytoplasmic tail of CNX; C-terminal (cytoplasmic) domain of CNX
The Kd is the constant that tells how readily two partners part at equilibrium. Low readings indicate higher affinity, high ones lower affinity. In general, koff refers to the first-order rate constant of dissociation. What is called kon is the second-order rate constant of association. In [5], B1 yielded a Kd of 9.4 nM, a koff of 0.00857 s⁻¹ and a kon of 908000 M⁻¹ s⁻¹.

B2: HIV-1 Nef, BRU isolate, wild type (NefBRU) (other)
chain: GGKWSKSSVVGWPTVRERMRRAEPAADGVGAASRDLEKHGAITSSNTAATNAACAWLEAQEEEEVGFPVTPQVPLRPMTYKAAVDLSHFLKEKGGLEGLIHSQRRQDILDLWIYHTQGYFPDWQNYTPGPGVRYPLTFGWCYKLVPVEPDKVEEANKGENTSLLHPVSLHGMDDPEREVLEWRFDSRLAFHHVARELHPEYFKNC
notes: whole, on cells; also called Nef WT; WT Nef
Take B2: the “reduction of binding relative to WT calnexin” value in assay [6] stood at 70%; in assay [7] it was 40%.

B3: HIV-1 Nef BRU K7A mutant (NefK7A) (other)
chain: GGKWSASSVVGWPTVRERMRRAEPAADGVGAASRDLEKHGAITSSNTAATNAACAWLEAQEEEEVGFPVTPQVPLRPMTYKAAVDLSHFLKEKGGLEGLIHSQRRQDILDLWIYHTQGYFPDWQNYTPGPGVRYPLTFGWCYKLVPVEPDKVEEANKGENTSLLHPVSLHGMDDPEREVLEWRFDSRLAFHHVARELHPEYFKNC
notes: whole, on cells; Expressed in HEK293T cells, co-immunoprecipitated from lysates
In the case of B3, the “reduction of interaction relative to WT Nef” value in assay [8] turned out to be 90%. Further, the “relative amount of co-precipitated Nef (gel densitometry)” value (shortened to “relative amount of co-precipitated Nef”) in assay [9] worked out at 0.1.

B4: HIV-1 Nef BRU K4,7A double mutant (NefK4,7A, pcDNA plasmid) (other)
chain: GGAWSASSVVGWPTVRERMRRAEPAADGVGAASRDLEKHGAITSSNTAATNAACAWLEAQEEEEVGFPVTPQVPLRPMTYKAAVDLSHFLKEKGGLEGLIHSQRRQDILDLWIYHTQGYFPDWQNYTPGPGVRYPLTFGWCYKLVPVEPDKVEEANKGENTSLLHPVSLHGMDDPEREVLEWRFDSRLAFHHVARELHPEYFKNC
notes: as for B3
As to B4, the binding result in [10] is listed as “no binding”. The “reduction of interaction relative to wild-type Nef” value in [11] is about 30%. Besides, the “relative amount of co-precipitated Nef” value in assay [9] is 0.01.

B5: HIV-1 Nef BRU K4A mutant (NefK4A) (other)
chain: GGAWSKSSVVGWPTVRERMRRAEPAADGVGAASRDLEKHGAITSSNTAATNAACAWLEAQEEEEVGFPVTPQVPLRPMTYKAAVDLSHFLKEKGGLEGLIHSQRRQDILDLWIYHTQGYFPDWQNYTPGPGVRYPLTFGWCYKLVPVEPDKVEEANKGENTSLLHPVSLHGMDDPEREVLEWRFDSRLAFHHVARELHPEYFKNC
notes: as for B3
For B5, the “reduction of interaction relative to WT Nef” value in [8] was 50%. The “relative amount of co-precipitated Nef” value in assay [9] is 0.5.
